Experiment in all cases: purified protein
Holding throughout (assay type): biochemical, Escherichia coli
Common to all, as to details: 0.05 M phosphate buffer, pH 7.0, 35 °C

Substrate in data set [1]: CCCCCCCCCC(=O)CC(=O)N[C@H]1CCOC1=O
Substrate in data set [2]: CCCC(=O)CC(=O)N[C@H]1CCOC1=O
Substrate in data set [3]: CCCCCCCCCC(=O)N[C@H]1CCOC1=O
Substrate in data set [4]: CCCCCC(=O)CC(=O)N[C@H]1CCOC1=O

B1: ecPGA (Escherichia coli penicillin G acylase) (Escherichia coli) (protein)
chain 1: EQSSSEIKIVRDEYGMPHIYANDTWHLFYGYGYVVAQDRLFQMEMARRSTQGTVAEVLGKDFVKFDKDIRRNYWPDAIRAQIAALSPEDMSILQGYADGMNAWIDKVNTNPETLLPKQFNTFGFTPKRWEPFDVAMIFVGTMANRFSDSTSEIDNLALLTALKDKYGVSQGMAVFNQLKWLVNPSAPTTIAVQESNYPLKFNQQNSQTA
chain 2: SNMWVIGKSKAQDAKAIMVNGPQFGWYAPAYTYGIGLHGAGYDVTGNTPFAYPGLVFGHNGVISWGSTAGFGDDVDIFAERLSAEKPGYYLHNGKWVKMLSREETITVKNGQAETFTVWRTVHGNILQTDQTTQTAYAKSRAWDGKEVASLLAWTHQMKAKNWQEWTQQAAKQALTINWYYADVNGNIGYVHTGAYPDRQSGHDPRLPVPGTGKWDWKGLLPFEMNPKVYNPQSGYIANWNNSPQKDYPASDLFAFLWGGADRVTEIDRLLEQKPRLTADQAWDVIRQTSRQDLNLRLFLPTLQAATSGLTQSDPRRQLVETLTRWDGINLLNDDGKTWQQPGSAILNVWLTSMLKRTVVAAVPMPFDKWYSASGYETTQDGPTGSLNISVGAKILYEAVQGDKSPIPQAVDLFAGKPQQEVVLAALEDTWETLSKRYGNNVSNWKTPAMALTFRANNFFGVPQAAAEETRHQAEYQNRGTENDMIVFSPTTSDRPVLAWDVVAPGQSGFIAPDGTVDKHYEDQLKMYENFGRKSLWLTKQDVEAHKESQEVLHVQR
In the case of B1, the Km was 2.50 ± 0.10 mM in data set [1], 0.51 ± 0.03 mM in data set [2], 2.98 ± 0.20 mM in data set [3] and 0.88 ± 0.04 mM in data set [4]. The kcat was found to be 0.0043 ± 0.0002 s⁻¹ in data set [1], 0.0100 ± 0.0002 s⁻¹ in data set [2], 0.0045 ± 0.0004 s⁻¹ in data set [3] and 0.0077 ± 0.0004 s⁻¹ in data set [4].

Broadly, the Km is the concentration of substrate that gives half-maximal velocity. In general, kcat refers to the number of substrate molecules converted per active site and unit of time at saturation.

For the origin of these results see doi:10.1101/2023.05.09.538545v2.
